Measurements taken from patent US20050037961A1 (BAYLOR COLLEGE OF MEDICINE, published 2005).

B1: FLAG-tagged rat CRP2 (αMHC-CRP2 transgene) (other, UniProt Q62908 1-193, looked up, not shown: small tags and cut ends)
chain: MPVWGGGNKCGACGRTVYHAEEVQCDGRTFHRCCFLCMVCRKNLDSTTVAIHDEEIYCKSCYGKKYGPKGYGYGQGAGTLNMDRGERLGIKPESAQPHRPTTNPNTSKFAQKYGGAEKCSRCGDSVYAAEKIIGAGKPWHKNCFRCAKCGKSLESTTLTEKEGEIYCKGCYAKNFGPKGFGYGQGAGALVHAQ
notes: Expressed in cardiomyocytes of transgenic mice and assayed in nuclear and cytoplasmic heart extracts; also called FLAG-CRP2; FLAG-tagged CRP2

What was measured:
[1] = target: T1, endogenous SRF (αMHC-CRP2 mouse heart nuclear extract) (mouse, UniProt Q9JM73 1-504); experiment: co-IP from nuclear extracts of αMHC-CRP2 transgenic mouse hearts, immunoblot
T1 sequence (looked up): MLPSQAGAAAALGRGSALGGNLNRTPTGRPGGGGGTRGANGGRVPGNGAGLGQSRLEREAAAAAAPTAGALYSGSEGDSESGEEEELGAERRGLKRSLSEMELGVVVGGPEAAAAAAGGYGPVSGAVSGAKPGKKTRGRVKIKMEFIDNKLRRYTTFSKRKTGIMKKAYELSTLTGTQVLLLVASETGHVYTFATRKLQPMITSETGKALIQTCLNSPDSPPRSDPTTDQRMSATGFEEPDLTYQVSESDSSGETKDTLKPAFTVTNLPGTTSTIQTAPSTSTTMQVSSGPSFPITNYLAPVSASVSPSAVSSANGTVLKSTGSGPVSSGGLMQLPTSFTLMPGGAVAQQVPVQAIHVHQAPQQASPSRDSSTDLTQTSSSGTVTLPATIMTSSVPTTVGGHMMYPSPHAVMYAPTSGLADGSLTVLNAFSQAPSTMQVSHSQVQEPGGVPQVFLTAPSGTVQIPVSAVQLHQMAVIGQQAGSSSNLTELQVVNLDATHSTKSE

GST-SRF = target: T2, GST-SRF (human, UniProt P11831 1-508); experiment: GST-SRF pull-down of 35S-labelled in vitro translated protein
T2 construct: also called GST-SRF fusion protein; not shown: glutathione S-transferase encoded by vector pGEX-2T
T2 sequence (looked up): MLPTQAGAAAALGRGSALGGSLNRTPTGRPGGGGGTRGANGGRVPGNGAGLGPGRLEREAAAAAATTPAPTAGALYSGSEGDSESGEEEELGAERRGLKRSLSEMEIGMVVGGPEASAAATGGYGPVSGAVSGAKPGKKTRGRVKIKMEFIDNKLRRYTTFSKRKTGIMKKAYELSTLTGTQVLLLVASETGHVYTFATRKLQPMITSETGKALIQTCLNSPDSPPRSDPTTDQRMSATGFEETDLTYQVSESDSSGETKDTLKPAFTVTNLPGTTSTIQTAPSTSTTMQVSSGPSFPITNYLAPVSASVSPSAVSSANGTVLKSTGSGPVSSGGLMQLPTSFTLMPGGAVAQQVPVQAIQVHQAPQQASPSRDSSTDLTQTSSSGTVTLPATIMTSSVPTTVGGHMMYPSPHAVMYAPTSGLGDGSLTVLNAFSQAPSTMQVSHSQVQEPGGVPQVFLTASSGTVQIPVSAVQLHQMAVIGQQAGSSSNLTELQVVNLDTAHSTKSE

[2] = target: endogenous GATA6 (αMHC-CRP2 mouse heart nuclear extract) (mouse, UniProt Q61169 1-589, limits assumed); experiment: co-IP from nuclear extracts of αMHC-CRP2 transgenic mouse hearts
[3] = target: T1, endogenous SRF (αMHC-CRP2 mouse heart …); experiment: as above
[4] = target: B1; experiment: as above

endogenous GATA6 (αMHC-CRP2 mouse heart nuclear extract), sequence (Q61169 whole entry): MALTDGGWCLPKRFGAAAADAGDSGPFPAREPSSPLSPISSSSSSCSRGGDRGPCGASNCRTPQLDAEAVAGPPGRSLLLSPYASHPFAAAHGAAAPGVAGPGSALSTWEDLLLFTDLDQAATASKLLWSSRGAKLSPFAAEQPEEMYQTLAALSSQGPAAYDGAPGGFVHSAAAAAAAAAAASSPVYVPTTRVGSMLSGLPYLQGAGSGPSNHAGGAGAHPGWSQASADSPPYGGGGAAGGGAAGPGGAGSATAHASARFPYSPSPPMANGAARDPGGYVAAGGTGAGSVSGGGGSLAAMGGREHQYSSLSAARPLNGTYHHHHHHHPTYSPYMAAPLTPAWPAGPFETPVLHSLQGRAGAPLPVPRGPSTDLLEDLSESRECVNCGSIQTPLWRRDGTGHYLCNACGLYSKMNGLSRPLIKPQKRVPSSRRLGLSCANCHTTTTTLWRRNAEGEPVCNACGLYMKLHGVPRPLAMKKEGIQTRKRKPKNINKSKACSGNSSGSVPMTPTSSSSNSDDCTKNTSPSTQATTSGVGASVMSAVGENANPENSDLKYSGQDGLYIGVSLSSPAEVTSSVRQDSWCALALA

B1
binding result [1]: binds

B2: CRP2ZF2+ZF3 (aa 35-145) (other, rat, UniProt Q62908 35-145, looked up, not shown: small tags and cut ends)
chain: FLCMVCRKNLDSTTVAIHDEEIYCKSCYGKKYGPKGYGYGQGAGTLNMDRGERLGIKPESAQPHRPTTNPNTSKFAQKYGGAEKCSRCGDSVYAAEKIIGAGKPWHKNCFR
notes: range 35-145; also called C2ZF2+ZF3
binding result (GST-SRF): no binding

B3: Id1, endogenous cardiac bHLH transcription factor (other, mouse, UniProt P20067 1-168, looked up)
chain: MKVASGSAAAAAGPSCSLKAGRTAGEVVLGLSEQSVAISRCAGTRLPALLDEQQVNVLLYDMNGCYSRLKELVPTLPQNRKVSKVEILQHVIDYIRDLQLELNSESEVGTTGGRGLPVRAPLSTLNGEISALAAEVRSESEYYIILQWETEATGGGCPPSLLFRRIAI
binding result [2]: no binding | binding result [3]: no binding | binding result [4]: no binding
